Here are results for 41 sequences from the nanobody polyreactivity screen of Harvey et al. (2022).

The nature of this data set: yeast display, Sf9 membrane polyspecificity reagent, FACS + sequencing; frameworks hold sequencing errors. A digest of the protocol: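 Synthetic nanobody libraries on Saccharomyces cerevisiae BJ5465 were galactose-induced for 36–48 hours, stained 1 hour at 4 °C with 10% biotinylated, detergent-solubilized Sf9 membrane reagent and enriched on streptavidin microbeads. FACS then separated cells into low and high (top ~1%) gates by anti-HA (expression) and streptavidin (reagent binding) fluorescence. Genes were colony-PCR amplified, MiSeq 2 × 250 sequenced and CDR-length filtered. A clone's polyreactivity label is that of its gate of origin.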
Take “QVQLVESGGGLVQAGGSLRLSCAASGIIFYRYAMGWYRQAPGKERELVAAITWRGGSTYYADSVKGRFTISRDNAMNTVYLQMNSLKPEDTAVYYCAARRRATYELDYWGQGTQVNVSS”: the “polyreactivity (PSR sort gate)” value is listed as “high polyreactivity”. In the case of “QVQLVESGGGLVQAGGSLRLSCAASGIIFYRYTKGWSRQAPGKETELVAGITRNGGSTYYADSVKGRFTISRVNAKNPVYLQMNSLKPEDTAVYYCATTLKFYWAKLDYRGQGTQVTVSS” it was “low polyreactivity”; in that of “QVQLVESGGGLVQAGGSLRLSCAASGIIFYSYAMGWYRPAPGKERELVAAISTGSSTNYADSVKGRFTISRDNAKNTVYLQMNSLKPEDTAVYYCAKSTAVKPYAYRESGFIYDYWGQGTQVTVSS”, “low polyreactivity”; in that of “QVQLVESGGGLVQAGGSLRLSCAASGIIFYTYAMGWYRQAPGKERELVAAISRSGVRTYYADSVKGRFTISRDNAKNTVYLQMNSLKPEDTAVYYCAVDKGITQGLYDYWGQGTQVTVSS”, “high polyreactivity”. In the case of “QVQLVESGGGLVQAGGSLRLSCAASGIIFYTYVMGWYRQAPGKEREFVAGISTSGGRTDYADSVKGRFTISRDNAKNTVYLQMNSLKPEDTAVYYCNADYWQWYSYWYDYWGQGTQVTVSS” it was “high polyreactivity”; in that of “QVQLVESGGGLVQAGGSLRLSCAASGIIFYTYVMGWYRQAPGKEREFVAGISTSGGRTDYADSVKGRFTISRDNAKNTVYLQMNSLKPEDTAVYYCNKLYRYPRYYYWGQGTQVTVSS”, “high polyreactivity”.

In the case of “QVQLVESGGGLVQAGGSLRLSCAASGIIFYVNDMGWYRQAPGKERELVADISGGTSTNYADSVKGRFTISRDNAKNTVYLQMNSLKPEDTAVYYCATAFIVPFPGSDYWGQGTQVTVSS”, the “polyreactivity (PSR sort gate)” value is recorded as “low polyreactivity”.

Take “QVQLVESGGGLVQAGGSLRLSCAASGIIFYVYAMGWYRQAPGKERELVAAISDTAGDTYYADSVKGRFTISRDNAKNTVYLQMNSLKPEDTAVSYCAADYYPLVGYWGQGTQVTVSS”: the “polyreactivity (PSR sort gate)” value was “low polyreactivity”. In the case of “QVQLVESGGGLVQAGGSLRLSCAASGIIFYVYAMGWYRQAPGKERELVAAISTSGGSTYYADSVKGRFTISRDNAKNTVYLQMNSLKPEDTAVYYCAADRPARSPKGSVDYWGQGTQVTVSS” it was “high polyreactivity”; in that of “QVQLVESGGGLVQAGGSLRLSCAASGIIFYYNAMGWYRQAPGKERELVAAISWSGGSTYYADSVKGRFTISRDNAKNTVYLQMNSLKPEDTAVYYCNAVRSTSYGSYNYWGQGTQVTVSS”, “low polyreactivity”; in that of “QVQLVESGGGLVQAGGSLRLSCAASGIIFYYNAMGWYRQAPGKERELVAAISWSGGSTYYADSVKGRFTISRDYAKNSVYLQMNSLKTEDTAVYYCAADYYWRVHYGYWGQGTQVTVSS”, “high polyreactivity”.

As to “QVQLVESGGGLVQAGGSLRLSCAASGIIFYYYAMGWYRQAPGKERELVAAITGTGSRTYYADSVKGRFTISRDNAKNTVYLQMNSLKPEDTAVYYCNARSFATGSKVPARGYWGQGTQVTVSS”, the “polyreactivity (PSR sort gate)” value was “high polyreactivity”. In the case of “QVQLVESGGGLVQAGGSLRLSCAASGIIFYYYAMGWYSPAPGKERELVAAISSGGSTYYADSVKGRFTISRDNAKNTVYLQMNSLKPEDTAVYYCAADPLYTIDIEYSTYGDFDYWGQGTQVTVSS” it was “low polyreactivity”; in that of “QVQLVESGGGLVQAGGSLRLSCAASGIIIARNTMGWYRQAPGKERELVAAISTRGTTTYYADSVKGRFTISRDNAENTVYLQMNSLKPEDTAVYYCAAVRVHTDRYNYWGQGTQVTVSS”, “high polyreactivity”; in that of “QVQLVESGGGLVQAGGSLRLSCAASGIIIKYYAMGWYRQAPGKERELVAAITDRGGSTYYADSVKGRFTISRDNAKNTVYLQMNSLKPEDTAVYYCAARRRAYTPYYYWGQGTQVTVSS”, “high polyreactivity”. To “QVQLVESGGGLVQAGGSLRLSCAASGIIIRNYGMGCYRQAPGKERELVARIRWTGGSTYYADSVKGRFTISRDNAKNTVYLQMNSLKPEDTAVYYCAADIWQYSRIANYHPYDYWGQGTQVTVSS” belongs “low polyreactivity”. To “QVQLVESGGGLVQAGGSLRLSCAASGIIIVRYAMGWYRQAPGKERELVAAISRRGGSTYYADSVKGRFTISRDNAKNTVSLQMNSLKPEDTAVYYCAALLGDITGYDYWGQGTQVTVSS” belongs “high polyreactivity”. Regarding “QVQLVESGGGLVQAGGSLRLSCAASGIILAFNAMGWYRQAPGKEREFVASISQGGSSTYYADSVKGRFTISRDNAKNTVYLQMNSLKREDTAVYYCAARSSRVRSPYQRYYYWGQGTQVTVSS”, the “polyreactivity (PSR sort gate)” value is given as “high polyreactivity”. In the case of “QVQLVESGGGLVQAGGSLRLSCAASGIILDRNAMGWYRQAPGKERELDAAINSIGGSTYYADSVKGRFTISRDNAKNTVYLQMNSLKPEDTAVYYCAAPSTSSYYWGQGTQVTVSS” it was “low polyreactivity”; in that of “QVQLVESGGGLVQAGGSLRLSCAASGIILGAYDMGLYRQAPGKERELVAAINRNGDRTYYADSVKGRFTISRDNAKNTVYLQMKSLKPEDTAVYFCAAPRVVRTFDYWGQGTQVTVSS”, “high polyreactivity”; in that of “QVQLVESGGGLVQAGGSLRLSCAASGIILHYYAMGWYRQAPGKERELVAAISARGGRTYYADSVKGRFTISRDNANNTVYLQMNSLKPEDTAVYYCAAVTVASPTRMDYWGQGTQVTVSS”, “high polyreactivity”. In the case of “QVQLVESGGGLVQAGGSLRLSCAASGIILNYNAMGWYRQAPGKERELVAVIRTRGGSTYYADSVKGRFTISRDNAKNTVYLQMNSLKPEDTAVYYCAAKQIPWHRGGFGYDYWGQGSQVTVSS” it was “low polyreactivity”; in that of “QVQLVESGGGLVQAGGSLRLSCAASGIILPYYAMGWYRQAPGKEREIVATISSDGTSTYYADSVKGRFTISRDNAKNTVYLQMNSLKPEDTAVYYCAARIRQNPGGDNSWGQGTQVTVSS”, “low polyreactivity”.

“QVQLVESGGGLVQAGGSLRLSCAASGIILRGYVIGWYRQAPGQERELVAAISTSGGRTYYADSVKGRFTISRDNAKNTVYLQMNSLKQEDTAVYYCAAVSSRLWLYDYWGQGTQVTVSS”: the “polyreactivity (PSR sort gate)” value is reported as “high polyreactivity”. Take “QVQLVESGGGLVQAGGSLRLSCAASGIILSDNAMGWYRQAPGKEREFVAAITGSCGSTYYADSVKGRFTISRDYAKKTDDLQMNSLKPEDTAVYYCSADGPFGYYYGHYGYWGQVTQVTVSS”: the “polyreactivity (PSR sort gate)” value is “low polyreactivity”. In the case of “QVQLVESGGGLVQAGGSLRLSCAASGIILSDNAMGWYRQAPGKEREIVAAITGSGGSTYYADSVKGRFTISRDNAKNTVYLQMNSLKPEDTAVYYCAADGPYGYYYGHYGYWGQGTQVTVSS” it was “low polyreactivity”; in that of “QVQLVESGGGLVQAGGSLRLSCAASGIILVNNAMGWYRQAPGTEREFVAAIRYSAGSTYYADSVKGRFTISRDTAKNTVYLQMNSLKAEDTAVYYCARRWKGGWYEYGYWGQGTQVTVAS”, “high polyreactivity”. In the case of “QVQLVESGGGLVQAGGSLRLSCAASGIILWRNAMGWYRQAPGKDRELVAAITSSGGRTYYADSVKGRFTISRDNAKNTVYLQMNSLKPEDTAVYYCSAYGYSIGPYDYWGQGTQVTVSS” it was “high polyreactivity”; in that of “QVQLVESGGGLVQAGGSLRLSCAASGIILYGYAMGWYRQAPGKARELVAALTWSGGSTYYADSVKGRFTISRDNAKNTVYLQMNSLKPEDTAVYYCAVDVHTSADASLPQEYDYWGQGTQVTVSS”, “low polyreactivity”; in that of “QVQLVESGGGLVQAGGSLRLSCAASGIILYPYAMGWYRQAPGKERELVAAISWSGGSTYYADSVKGRFTISRDKAKNTVYLQMNSLKPEDTAVYYCNARYYGPSWNSYDYWGQGTQVTVSS”, “high polyreactivity”. In the case of “QVQLVESGGGLVQAGGSLRLSCAASGIILYPYFMGWYIQAPGKERELVAAISYSGGSTYYADSVKGRFTISGDNAKNTVYLQMNSLKPEDTAVYYCAAVPVTSQTKYGYWGQGTQVTVSS” it was “high polyreactivity”; in that of “QVQLVESGGGLVQAGGSLRLSCAASGIISIFIVMGGYRQAPGKERELVASITGRGGSTFYADSVKGRFTISRDNAKNTVYLQMNSLKPEDTAVYYCATDTGYTYPVTGLYDYWGQGTQVTVSS”, “low polyreactivity”; in that of “QVQLVESGGGLVQAGGSLRLSCAASGIISRVYAMGWYRLAPGKERELVAAISGSGGTTYYADSVKGRFTISRDNAKNTVYLLMNSLKPEDTAVYYCAARYKALYDYWGQGSQVTVSS”, “high polyreactivity”.

As for “QVQLVESGGGLVQAGGSLRLSCAASGIISSVYAMGWYRQARGKERELVAAISGSGGSTYYADSVKGRFTISRDNAKNTVYLQMNSLKPEDTAVYYCAKGYQYQGNSYGYWGQGTQVTVSS”, the “polyreactivity (PSR sort gate)” value is “low polyreactivity”.

Take “QVQLVESGGGLVQAGGSLRLSCAASGIISSYYAMGWYRQAPGKERELVAAISKSGGSTDYADSVKGRFTISRDNAKNTVYLQMNSLKPEDTAVYYCAADAYWSYSTRYWFAYDYWGQGTQVTVSS”: the “polyreactivity (PSR sort gate)” value is “low polyreactivity”. To “QVQLVESGGGLVQAGGSLRLSCAASGIISYVYAMGWYRQAPGKERELVAAINWSGGNTYYADSVKGRFTISRDNAKNTVYLQMNSLKPEDTAVYYCAARAVLKSWAYYYWGQGTQVTVSS” belongs “high polyreactivity”; to “QVQLVESGGGLVQAGGSLRLSCAASGILLFNAMGWYRQAPGKERELVAPINSGGSTNYADSVKGRFTISRDNAKNTVYLQMKSLKPDDTAVYYCGKDTPFTLRVWAEGGMDYWGEGTQVTVSS”, “low polyreactivity”; to “QVQLVESGGGLVQAGGSLRLSCAASGILYYYAMGWYRQAPGKERELVAAITSGGSTNYADSVKGRFTISRDNAKNTVYLQMNSLKPEDTAVYYCNARRWWVIRDYWGQGTQVTVSS”, “high polyreactivity”.

On to “QVQLVESGGGLVQAGGSLRLSCAASGINFIVNPMGWYRQAPGKEREFVATISANSDGTYYADSVKGRFTISRDNAKNTVYLQMNSLKPEDTAVYYWGQGTQVTVSS”, for which the “polyreactivity (PSR sort gate)” value is “low polyreactivity”. Take “QVQLVESGGGLVQAGGSLRLSCAASGINFQRNDMGWYRQAPGKERELVANIRDGGITYADSVKGRFTISRDNAKNTVYLQMNSLKPEDTAVYYCARDDTSPGYGDQSSNAAYYYWGQGTQVTVSS”: the “polyreactivity (PSR sort gate)” value is on record as “low polyreactivity”. To “QVQLVESGGGLVQAGGSLRLSCAASGINFSYYAMGWYRQAPGKERELVAAIRENGGSTYYADSVKGRFTISRDNAKNTVYLQMNSLKPEDTAVYYCAVDTTYYAGYEYDYWGQGTQVTVSS” belongs “low polyreactivity”.
